{
  "source": "paper PMC2132786",
  "assay_in_all_cases": "sucrose density gradient sedimentation",
  "key": {"[1]": {"molecular_target": "V55P/S71P double proline mutant hemagglutinin (X:31 strain, HA2 V55P and S71P) (influenza virus, X:31 strain) (UniProt P03437)"}, "[2]": {"molecular_target": "L80P mutant hemagglutinin (X:31 strain, HA2 L80P) (influenza virus, X:31 strain) (UniProt P03437)"}, "[3]": {"molecular_target": "S71P mutant hemagglutinin (X:31 strain, HA2 S71P) (influenza virus, X:31 strain) (UniProt P03437)"}},
  "data": [
    {"substance": "V55P/S71P double proline mutant hemagglutinin (X:31 strain, HA2 V55P and S71P) (from UniProt P03437 17-344) (natural protein)", "values": [
      {"measurement": "stoichiometry N", "setting": "[1]", "value": 3}
    ]},
    {"substance": "L80P mutant hemagglutinin (X:31 strain, HA2 L80P) (from UniProt P03437 17-344) (natural protein)", "values": [
      {"measurement": "stoichiometry N", "setting": "[2]", "value": 3}
    ]},
    {"substance": "S71P mutant hemagglutinin (X:31 strain, HA2 S71P) (from UniProt P03437 17-344) (natural protein)", "values": [
      {"measurement": "stoichiometry N", "setting": "[3]", "value": 3}
    ]}
  ]
}
